Laboratory results: US20190062438A1 (CSL, published 2019)
Where a chain is given by its changes, count along the chain named.

T1: soluble Homo sapiens CD131 comprising a C-terminal 6xHis tag (human, UniProt P32927 17-438)
T1 construct: truncated after Ser438, C-terminal 6xHis; also called shCD131; shβc
T1 sequence: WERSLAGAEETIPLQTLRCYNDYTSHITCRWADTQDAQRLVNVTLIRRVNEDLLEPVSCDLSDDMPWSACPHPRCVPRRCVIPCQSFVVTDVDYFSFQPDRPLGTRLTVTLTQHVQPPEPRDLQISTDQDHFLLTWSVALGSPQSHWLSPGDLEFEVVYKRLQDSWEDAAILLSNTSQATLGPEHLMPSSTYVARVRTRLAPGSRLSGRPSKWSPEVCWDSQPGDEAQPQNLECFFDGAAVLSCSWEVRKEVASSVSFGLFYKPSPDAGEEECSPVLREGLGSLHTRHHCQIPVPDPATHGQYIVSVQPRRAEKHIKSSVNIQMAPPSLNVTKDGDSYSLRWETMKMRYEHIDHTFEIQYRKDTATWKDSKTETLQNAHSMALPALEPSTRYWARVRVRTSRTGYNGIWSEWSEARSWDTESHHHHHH

B1: 9A2-VR24.10 Fab (Fab, V domains shown)
VH: EVQLLESGGGLVQPGGSLRLSCAASGFTFPWYRVHWVRQAPGKGLEWVSSIHTGSQWTYYADSVKGRFTISRDNSKNTLYLQMNSLRAEDTAVYYCARFYDSFFDIWGQGTMVTVSS
VL: DIQMTQSPSSVSASVGDRVTITCRASQGISSWLAWYQQKPGKAPKLLIYAASSLQSGVPSRFSGSGSGTDFTLTISSLQPEDFATYYCQQANSFPITFGQGTRLEIKR
notes: recombinant Fab
B2: 9A2-VR24.44 Fab (Fab, V domains shown)
VH: B1 VH with H52R, T53S, G54S, S55G, Q56G, W57F, T58P, A61H, D62P
VL: B1 VL
notes: recombinant Fab
B3: 9A2-VR39.17 Fab (Fab, V domains shown)
VH: B1 VH with W31F, R33H, V34K, H35V, H52N, T53G, G54R, S55G, Q56R, W57V
VL: B1 VL
notes: recombinant Fab
B4: 9A2-VR24.57 Fab (Fab, V domains shown)
VH: B1 VH with H52R, T53S, G54S, S55G, Q56G, W57F, A61N, D62P, S63K, G66H
VL: B1 VL
notes: recombinant Fab
B5: 9A2-VR24.91 Fab (Fab, V domains shown)
VH: B1 VH with G54H, S55R, W57V
VL: B1 VL
notes: recombinant Fab
B6: 9A2-VR39.177 Fab (Fab, V domains shown)
VH: EVQLLESGGGLVQPGGSLRLSCAASGFTFSHYHMLWVRQAPGKGLEWVSSINGRGRVTYYALEYKKRFTISRDNSKNTLYLQMNSLRAEDTAVYYCARFYDSFFDIWGQGTMVTVSS
VL: B1 VL
notes: recombinant Fab
B7: 9A2-VR39.110 Fab (Fab, V domains shown)
VH: B6 VH with S30V, H31W, M34H, L35I, L62D, E63S, Y64V, K66G
VL: B1 VL
notes: recombinant Fab
B8: 9A2-VR24.110 Fab (Fab, V domains shown)
VH: B1 VH with H52R, T53S, G54S, S55G, Q56G, W57F, T58P, A61N, D62N, S63H
VL: B1 VL
notes: recombinant Fab
B9: 9A2-VR24.111 Fab (Fab, V domains shown)
VH: EVQLLESGGGLVQPGGSLRLSCAASGFTFPWYRVHWVRQAPGKGLEWVSSIRSSGGFPMYNPHVKGRFTISRDNSKNTLYLQMNSLRAEDTAVYYCARFYDSFFDIWGQGTMVTVSS
VL: B1 VL
notes: recombinant Fab
B10: 9A2-VR24.30 Fab (Fab, V domains shown)
VH: B9 VH with M59Y, P62R, H63R
VL: B1 VL
notes: recombinant Fab
B11: 9A2-VR39.04 Fab (Fab, V domains shown)
VH: B6 VH with S30N, H31W, Y32F, H33Q, M34H, L35I, L62D, E63S, Y64V, K66G
VL: B1 VL
notes: recombinant Fab
B12: 9A2-VR24.33 Fab (Fab, V domains shown)
VH: B9 VH with M59Y, P62H, H63K
VL: B1 VL
notes: recombinant Fab
B13: 9A2-VR39.02 Fab (Fab, V domains shown)
VH: B6 VH with S30Y, H31W, L35I, L62D, E63S, Y64V, K66G
VL: B1 VL
notes: recombinant Fab
B14: 9A2-VR39.93 Fab (Fab, V domains shown)
VH: B6 VH with A61N, L62P, E63A, Y64W
VL: B1 VL
notes: recombinant Fab
B15: 9A2-VR24.107 Fab (Fab, V domains shown)
VH: B9 VH with M59Y, H63F
VL: B1 VL
notes: recombinant Fab
B16: 9A2-VR24.102 Fab (Fab, V domains shown)
VH: B9 VH with M59F, P62S, H63S
VL: B1 VL
notes: recombinant Fab
B17: 9A2-VR24.97 Fab (Fab, V domains shown)
VH: B9 VH with M59Y, N61S, P62L, H63S
VL: B1 VL
notes: recombinant Fab
B18: 9A2-VR24.55 Fab (Fab, V domains shown)
VH: B9 VH with P58T, M59Y, H63S, G66N
VL: B1 VL
notes: recombinant Fab
B19: 9A2-VR24.81 Fab (Fab, V domains shown)
VH: B1 VH with G54H, S55R, Q56N, W57Y
VL: B1 VL
notes: recombinant Fab
B20: 9A2-VR39.24 Fab (Fab, V domains shown)
VH: B6 VH with S30H, Y32F, M34V, L35I, L62D, E63S, Y64V, K66G
VL: B1 VL
notes: recombinant Fab
B21: 9A2-VR24.122 Fab (Fab, V domains shown)
VH: B9 VH with P58T, M59Y, P62S, H63E
VL: B1 VL
notes: recombinant Fab
B22: 9A2-VR24.84 Fab (Fab, V domains shown)
VH: B1 VH with G54H, S55R, Q56P
VL: B1 VL
notes: recombinant Fab
B23: 9A2-VR24.56 Fab (Fab, V domains shown)
VH: B9 VH with P58T, M59Y, H63A, K65R
VL: B1 VL
notes: recombinant Fab
B24: 9A2-VR39.109 Fab (Fab, V domains shown)
VH: B6 VH with S30M, H31W, M34H, L35I, L62D, E63S, Y64V, K66G
VL: B1 VL
notes: recombinant Fab
B25: 9A2-VR24.124 Fab (Fab, V domains shown)
VH: B9 VH with P58T, M59Y, N61T, H63S, K65R
VL: B1 VL
notes: recombinant Fab
B26: 9A2-VR24.98 Fab (Fab, V domains shown)
VH: B9 VH with M59H, P62S, H63V
VL: B1 VL
notes: recombinant Fab
B27: 9A2-VR39.01 Fab (Fab, V domains shown)
VH: B6 VH with S30F, H31W, Y32F, M34H, L35V, L62D, E63S, Y64V, K66G
VL: B1 VL
notes: recombinant Fab
B28: 9A2-VR24.27 Fab (Fab, V domains shown)
VH: B9 VH with M59Y, N61H, P62Q, H63K
VL: B1 VL
notes: recombinant Fab
B29: 9A2-VR39.22 Fab (Fab, V domains shown)
VH: B6 VH with S30Q, H31W, M34V, L35I, L62D, E63S, Y64V, K66G
VL: B1 VL
notes: recombinant Fab

Each binder was assayed against T1, soluble Homo sapiens CD131 comprising a … (assay: SPR, Fab over captured shCD131).
Procedure: Binding kinetics were measured using SPR with a BIAcore™ A-100 instrument (GE Healthcare Life Sciences). An anti-C-terminal Hexa-His antibody (3H3) was immobilized on spots 1, 2, 4 and 5 of each flow cell of a CM-5 sensor chip (GE Healthcare Life Sciences) using amine-coupling chemistry (116). […] As shβc is a dimer, kinetics assays were performed with shβc captured on the sensor surface, and purified Fab injected as the analyte. Avidity effects were avoided by the use of Fab rather than whole IgG.
shCD131 was captured on spots 1 and 5 of each flow cell for 2 minutes at a concentration of 0.4 μg/ml. […] For some analysis purified Fab was injected over each flow cell for 3 minutes and dissociation was monitored for a further 10 minutes. Regeneration of the surface was performed after each cycle with a 40 second injection of 25 mM glycine, pH 2.0. The analysis was performed with Fabs at several concentrations between 100 and 0.31 nM, with each concentration analyzed twice and in random order. The analysis was performed at a flow rate of 30 μl/min in HBS-EP buffer (10 mM Hepes, 150 mM NaCl, 3 mM EDTA, 0.005% Tween 20, pH 7.4) at 37° C. Responses from spots 2 and 4 of each flow cell, (in which shβc was not captured, but otherwise treated identically), were subtracted from those of spots 1 and 5 respectively to produce reference subtracted data. Reference subtracted responses from a blank injection comprising buffer alone were subtracted from the resultant sensorgrams to produce double referenced data suitable for kinetic analysis. Double-referenced sensorgrams were fitted using non-linear regression to a model describing 1:1 kinetics, including a term for mass transport limitation. The Rₘₐₓ value was fitted locally to account for slight deviations in the level of sCD131 captured, with association rate (kₐ), dissociation rate (kd) and equilibrium dissociation constant (KD) fitted globally.

| Kd [nM] | koff [s⁻¹] | kon [M⁻¹ s⁻¹] | Binder |
| --- | --- | --- | --- |
| 0.372 | 0.00055 | 1.48e+06 | B1 |
| 0.163 | 0.000488 | 3e+06 | B2 |
| 0.201 | 0.000566 | 2.81e+06 | B3 |
| 0.211 | 0.000841 | 4e+06 | B4 |
| 0.161 | 0.000448 | 2.78e+06 | B5 |
| 0.15 | 0.000554 | 3.69e+06 | B6 |
| 0.11 | 0.00039 | 3.8e+06 | B7 |
| 0.151 | 0.000475 | 3.15e+06 | B8 |
| 0.236 | 0.000637 | 2.7e+06 | B9 |
| 0.122 | 0.000464 | 3.8e+06 | B10 |
| 0.329 | 0.00117 | 3.55e+06 | B11 |
| 0.149 | 0.000472 | 3.16e+06 | B12 |
| 0.0877 | 0.000341 | 3.89e+06 | B13 |
| 0.171 | 0.00071 | 4.15e+06 | B14 |
| 0.183 | 0.00053 | 2.89e+06 | B15 |
| 0.188 | 0.000556 | 2.95e+06 | B16 |
| 0.16 | 0.000524 | 3.2e+06 | B17 |
| 0.369 | 0.000942 | 2.55e+06 | B18 |
| 0.173 | 0.000492 | 2.85e+06 | B19 |
| 0.169 | 0.0005 | 2.96e+06 | B20 |
| 0.353 | 0.000897 | 2.54e+06 | B21 |
| 0.106 | 0.000418 | 3.95e+06 | B22 |
| 0.353 | 0.000997 | 2.82e+06 | B23 |
| 0.098 | 0.00033 | 3.4e+06 | B24 |
| 0.25 | 0.00076 | 2.9e+06 | B25 |
| 0.174 | 0.000559 | 3.21e+06 | B26 |
| 0.102 | 0.00031 | 3.04e+06 | B27 |
| 0.17 | 0.000527 | 3.1e+06 | B28 |
| 0.141 | 0.000441 | 3.13e+06 | B29 |
